Laboratory results as given in IntAct's records for PubMed 14681217.

B1: Integrin beta-7 (Homo sapiens), P26010 (parent)
chain: MVALPMVLVLLLVLSRGESELDAKIPSTGDATEWRNPHLSMLGSCQPAPSCQKCILSHPSCAWCKQLNFTASGEAEARRCARREELLARGCPLEELEEPRGQQEVLQDQPLSQGARGEGATQLAPQRVRVTLRPGEPQQLQVRFLRAEGYPVDLYYLMDLSYSMKDDLERVRQLGHALLVRLQEVTHSVRIGFGSFVDKTVLPFVSTVPSKLRHPCPTRLERCQSPFSFHHVLSLTGDAQAFEREVGRQSVSGNLDSPEGGFDAILQAALCQEQIGWRNVSRLLVFTSDDTFHTAGDGKLGGIFMPSDGHCHLDSNGLYSRSTEFDYPSVGQVAQALSAANIQPIFAVTSAALPVYQELSKLIPKSAVGELSEDSSNVVQLIMDAYNSLSSTVTLEHSSLPPGVHISYESQCEGPEKREGKAEDRGQCNHVRINQTVTFWVSLQATHCLPEPHLLRLRALGFSEELIVELHTLCDCNCSDTQPQAPHCSDGQGHLQCGVCSCAPGRLGRLCECSVAELSSPDLESGCRAPNGTGPLCSGKGHCQCGRCSCSGQSSGHLCECDDASCERHEGILCGGFGRCQCGVCHCHANRTGRACECSGDMDSCISPEGGLCSGHGRCKCNRCQCLDGYYGALCDQCPGCKTPCERHRDCAECGAFRTGPLATNCSTACAHTNVTLALAPILDDGWCKERTLDNQLFFFLVEDDARGTVVLRVRPQEKGADHTQAIVLGCVGGIVAVGLGLVLAYRLSVEIYDRREYSRFEKEQQQLNWKQDSNPLYKSAITTTINPRFQEADSPTL

Variants of: B1
Details: with ita4_human ITGA4, P13612
Chain of ita4_human ITGA4, P13612 (P13612 whole entry): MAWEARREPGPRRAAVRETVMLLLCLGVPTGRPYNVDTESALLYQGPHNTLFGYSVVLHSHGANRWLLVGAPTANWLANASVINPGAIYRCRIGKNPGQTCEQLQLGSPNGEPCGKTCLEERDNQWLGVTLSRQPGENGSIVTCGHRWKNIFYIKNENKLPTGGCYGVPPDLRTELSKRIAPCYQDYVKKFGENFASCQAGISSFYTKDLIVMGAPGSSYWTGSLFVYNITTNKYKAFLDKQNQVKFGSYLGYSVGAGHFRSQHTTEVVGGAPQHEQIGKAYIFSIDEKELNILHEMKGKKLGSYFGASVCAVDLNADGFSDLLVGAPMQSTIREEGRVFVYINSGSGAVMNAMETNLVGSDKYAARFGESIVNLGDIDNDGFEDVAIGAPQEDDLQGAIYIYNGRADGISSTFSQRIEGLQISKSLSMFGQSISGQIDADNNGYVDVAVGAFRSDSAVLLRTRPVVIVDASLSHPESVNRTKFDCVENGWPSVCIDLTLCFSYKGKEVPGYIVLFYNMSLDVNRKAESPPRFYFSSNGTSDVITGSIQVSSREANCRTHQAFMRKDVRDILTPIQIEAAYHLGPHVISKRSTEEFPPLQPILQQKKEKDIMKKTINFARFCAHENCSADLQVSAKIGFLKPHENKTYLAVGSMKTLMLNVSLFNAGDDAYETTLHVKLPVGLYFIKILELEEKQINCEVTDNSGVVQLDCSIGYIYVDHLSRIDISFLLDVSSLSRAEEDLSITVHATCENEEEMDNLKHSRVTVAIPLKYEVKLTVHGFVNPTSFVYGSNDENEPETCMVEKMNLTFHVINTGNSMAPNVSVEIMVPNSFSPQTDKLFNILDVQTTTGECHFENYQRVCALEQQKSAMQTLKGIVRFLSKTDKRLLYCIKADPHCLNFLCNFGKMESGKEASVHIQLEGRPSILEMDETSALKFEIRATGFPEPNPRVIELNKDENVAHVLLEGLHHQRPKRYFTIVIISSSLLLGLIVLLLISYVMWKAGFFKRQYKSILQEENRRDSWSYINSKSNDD

Variant	effect of a mutation on the interaction
G734I	decreasing interaction
G730I	decreasing interaction
